Three molecules from PMC4475299, “Characterization and applications of Nanobodies against human procalcitonin selected from a novel naïve Nanobody phage display library” (Journal of Nanobiotechnology, 2015) can be followed below.

B1: PCT Nb3 (VHH)
VHH: QVQLQESGGGSVQVGGSLRLSCAASGYTYSSACMGWFRQAPGKEREWVGSIVSDSDDRTNYADAVKGRFTITQDNAKNTVYLQMNSLKPEDTAMYYCAARPGNCFIATKTRRYDYWGQGTQVTVSS
notes: VHH from a naïve bactrian camel phage display library; Expressed from phagemid pMECS; source: E. coli WK6, periplasmic extract by osmotic shock, purified (Ni-NTA, 500 mM imidazole); not shown: HA, C-terminal, kept
B2: PCT Nb1 (VHH)
VHH: QVQLQESGGGSVQAGGSLRLSCLASGYTYSSYCMGWFRQAPGKEREGVAAIGSDGSTSYADSVKGRFTISQDNAKNTLYLQMNSLKPEDTAMYYCAASKSEYDCYSGSGGLFGYWGQGTQVTVSS
notes: as for B1
B3: PCT Nb2 (VHH)
VHH: QVQLQESGGGSVQAGGSLRLSCAASTSSNVNVCMGWFRQAPGKEREGVAVIARDSETNYAASVKGRFTISQDNAKNTLYLQLNSLKPEDTAMYYCAAGPCANIRGSWSNSRLLRYNFWGQGTQVTVSS
notes: as for B1

This experiment has as its target T1, human procalcitonin (Homo sapiens, UniProt P01258).
T1 construct: human procalcitonin (PCT), the product of preprocalcitonin after removal of the signal peptide; Bought protein; also called PCT; source: bought: Huibiao Biological Technology Co., Ltd
The experiment can be described thus: SPR; SPRi on PlexArray HT; Nbs spotted and immobilised on NanoCapture 3D-chip; PCT injected at 9.7, 29.2, 87.6 and 263 nM in PBST, 2 uL/s; 1:1 Langmuir fit. To be noted: both partners purified. On the technique in general: SPR reads the build-up and loss of mass on a sensor chip optically.
As usually defined, the Kd is a measure of binding affinity in units of concentration. As usually defined, the koff is the rate constant with which the complex falls apart. What is called kon is a measure of how fast the partners come together. Consider B1, for which the Kd stood at 8.89 nM, the koff was determined as 0.000383 s⁻¹ and the kon is 43100 M⁻¹ s⁻¹.
The matching figures for B2: 12.3 nM, 0.00051 s⁻¹ and 41600 M⁻¹ s⁻¹.
For B3 the same measures were 1.34 nM, 0.000197 s⁻¹ and 147000 M⁻¹ s⁻¹.
